Data taken from patent publication US20200157212A1 (Pfizer, published 2020).

Target: T1, Human ROBO2 overexpressed on HEK293 cells (human, UniProt Q9HCK4 22-1378)
T1 construct: also called ROBO2 cells; native ROBO2
T1 sequence: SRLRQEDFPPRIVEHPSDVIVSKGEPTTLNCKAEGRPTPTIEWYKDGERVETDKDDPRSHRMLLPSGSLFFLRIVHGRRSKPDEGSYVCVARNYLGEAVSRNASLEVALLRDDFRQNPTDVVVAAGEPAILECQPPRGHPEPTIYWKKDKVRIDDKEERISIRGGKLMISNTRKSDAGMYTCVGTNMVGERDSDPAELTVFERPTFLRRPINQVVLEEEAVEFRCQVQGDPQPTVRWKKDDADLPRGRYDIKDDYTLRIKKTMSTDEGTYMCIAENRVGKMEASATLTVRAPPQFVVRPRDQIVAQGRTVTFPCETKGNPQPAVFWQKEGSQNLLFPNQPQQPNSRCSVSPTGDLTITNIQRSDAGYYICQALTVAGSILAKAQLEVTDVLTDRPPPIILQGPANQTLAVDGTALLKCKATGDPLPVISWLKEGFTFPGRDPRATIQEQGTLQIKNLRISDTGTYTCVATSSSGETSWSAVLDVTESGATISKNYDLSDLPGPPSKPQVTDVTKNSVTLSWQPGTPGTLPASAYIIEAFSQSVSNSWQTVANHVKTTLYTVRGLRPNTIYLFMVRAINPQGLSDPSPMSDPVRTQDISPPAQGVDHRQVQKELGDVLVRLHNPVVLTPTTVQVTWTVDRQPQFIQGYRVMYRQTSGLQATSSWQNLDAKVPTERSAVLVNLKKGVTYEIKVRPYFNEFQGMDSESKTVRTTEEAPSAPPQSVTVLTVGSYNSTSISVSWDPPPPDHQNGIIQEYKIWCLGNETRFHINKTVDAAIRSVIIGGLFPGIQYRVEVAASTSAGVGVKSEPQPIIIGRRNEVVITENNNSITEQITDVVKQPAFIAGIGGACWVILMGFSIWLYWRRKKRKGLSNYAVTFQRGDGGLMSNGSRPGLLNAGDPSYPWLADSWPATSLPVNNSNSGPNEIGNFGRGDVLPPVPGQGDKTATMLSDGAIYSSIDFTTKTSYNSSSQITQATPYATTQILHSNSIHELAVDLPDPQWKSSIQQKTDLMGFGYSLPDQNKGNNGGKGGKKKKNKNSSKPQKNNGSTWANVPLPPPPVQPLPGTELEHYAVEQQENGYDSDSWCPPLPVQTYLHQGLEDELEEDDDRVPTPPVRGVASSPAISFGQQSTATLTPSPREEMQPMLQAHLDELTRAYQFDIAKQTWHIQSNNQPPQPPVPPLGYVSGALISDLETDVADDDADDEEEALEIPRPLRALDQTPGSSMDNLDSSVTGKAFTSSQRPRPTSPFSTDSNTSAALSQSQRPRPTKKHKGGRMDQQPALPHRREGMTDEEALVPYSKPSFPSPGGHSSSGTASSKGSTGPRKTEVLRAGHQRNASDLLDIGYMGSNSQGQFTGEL
Experiment: flow cytometry, Geo MFI ROBO2/ROBO1 HEK293 cells, 0.1 µg/ml

Fold Selectivity for ROBO2/ROBO1: > 100 fold
B1: 93H2 (antibody, human IgG1, kappa, V domains shown)
VH: EVQLVQSGAEVKKPGASVKVSCKASGYTFTGYYMHWVRQAPGQGLEWMGWINPNSGATNFPQKFQGRVTMTRDTSITTAYMDLSRLRSDDTAVYYCARESGDDAFDIWGQGTMVTVSS
VL: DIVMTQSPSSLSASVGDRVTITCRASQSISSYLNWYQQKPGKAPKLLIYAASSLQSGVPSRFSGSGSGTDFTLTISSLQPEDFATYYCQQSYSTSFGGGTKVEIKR
notes: also called parental 93H2; 93H2 mAb
